# Laboratory results reported in publication PMC6533540, “DprA Is Essential for Natural Competence in Riemerella anatipestifer and Has a Conserved Evolutionary Mechanism”.
# T1: DprA (DprARa) (Riemerella anatipestifer ATCC11845, UniProt E4TBU2 1-367)
# T1 sequence: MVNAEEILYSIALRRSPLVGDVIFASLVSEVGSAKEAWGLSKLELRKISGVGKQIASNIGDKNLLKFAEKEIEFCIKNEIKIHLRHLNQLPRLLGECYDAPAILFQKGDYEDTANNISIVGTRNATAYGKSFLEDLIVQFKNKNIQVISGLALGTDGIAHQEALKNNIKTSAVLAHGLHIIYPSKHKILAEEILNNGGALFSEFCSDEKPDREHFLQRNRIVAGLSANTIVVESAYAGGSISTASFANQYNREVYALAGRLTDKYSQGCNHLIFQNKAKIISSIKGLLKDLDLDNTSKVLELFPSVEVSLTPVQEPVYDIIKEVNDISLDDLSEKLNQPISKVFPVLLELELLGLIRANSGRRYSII
# Biological target: T1, DprA (DprARa)
# Test: EMSA; 1-20 uM DprA; 25 mM HEPES pH 7.0, 150 mM NaCl, 10% glycerol, 1 mM DTT, 0.05% IGEPAL, 30 min at 30 C; 8% native PAGE in 0.5x TBE on ice
# Settings: protein: recombinant, tags: C-terminal His6, chain copies: 2, label: biotin
Binder,binding result,binding result (blunt)
TAGGCTCTGCTAAGGAAGCGTGGGGTCTGTCTAAGTTGGA (ssDNA) [RA-ssDNA1],binds,–
dsDNA annealed from RA-ssDNA1 (dsDNA) DNA 1: TAGGCTCTGCTAAGGAAGCGTGGGGTCTGTCTAAGTTGGA DNA 2: TCCAACTTAGACAGACCCCACGCTTCCTTAGCAGAGCCTA,–,binds
AAAAACTACGGAACTGACTAAAGGCAGAAAAACTAAACGG (ssDNA) [RA-ssDNA2],binds,–
